Assay results published in patent US20070134720.
Positions count from the first letter of the chain named. Names may count otherwise.

B1: Syno dTM synoviolin protein (GST moiety removed by thrombin) (protein)
chain: KVHTFPLFAIRPMYLAMRQFKKAVTDAIMSRRAIRNMNTLYPDATPEELQAMDNVCIICREEMVTGAKRLPCNHIFHTSCLRSWFQRQQTCPTCRMDVLRASLPAQSPPPPEPADQGPPPAPHPPPLLPQPPNFPQGLLPPFPPGMFPLWPPMGPFPPVPPPPSSGEAVAPPSTSAAALSRPSGAATTTAAGTSATAASATASGPGSGSAPEAGPAPGFPFPPPWMGMPLPPPFAFPPMPVPPAGFAGLTPEELRALEGHERQHLEARLQSLRNIHTLLDAAMLQINQYLTVLASLGPPRPATSVNSTEGTATTVVAAASSTSIPSSEATTPTPGASPPAPEMERPPAPESVGTEEMPEDGEPDAAELRRRRLQKLESPVAH
B2: Syno dTM (C307S) with 307th cysteine to serine substitution (GST moiety removed by thrombin) (protein)
chain: B1 chain with C72S
B3: Syno dTM (dRING) with 291st to 329th amino acid deletion (GST moiety removed by thrombin) (protein)
chain: KVHTFPLFAIRPMYLAMRQFKKAVTDAIMSRRAIRNMNTLYPDATPEELQAMDNVRMDVLRASLPAQSPPPPEPADQGPPPAPHPPPLLPQPPNFPQGLLPPFPPGMFPLWPPMGPFPPVPPPPSSGEAVAPPSTSAAALSRPSGAATTTAAGTSATAASATASGPGSGSAPEAGPAPGFPFPPPWMGMPLPPPFAFPPMPVPPAGFAGLTPEELRALEGHERQHLEARLQSLRNIHTLLDAAMLQINQYLTVLASLGPPRPATSVNSTEGTATTVVAAASSTSIPSSEATTPTPGASPPAPEMERPPAPESVGTEEMPEDGEPDAAELRRRRLQKLESPVAH
B4: Syno RING synoviolin protein (GST moiety removed by thrombin) (protein)
chain: IRNMNTLYPDATPEELQAMDNVCIICREEMVTGAKRLPCNHIFHTSCLRSWFQRQQTCPTCRMDVLRASLPAQSPPPPEPADQGPPPAPHPPPLLPQPPNFPQGLLPPFPPGMFPLWPPMGPFPPVPPPPSSGEAVAPPSTSAAALSRPSGA

Target: GST-fused P4HA1 protein (whole region of P4HA1)
Sequence (chain, as listed by the source): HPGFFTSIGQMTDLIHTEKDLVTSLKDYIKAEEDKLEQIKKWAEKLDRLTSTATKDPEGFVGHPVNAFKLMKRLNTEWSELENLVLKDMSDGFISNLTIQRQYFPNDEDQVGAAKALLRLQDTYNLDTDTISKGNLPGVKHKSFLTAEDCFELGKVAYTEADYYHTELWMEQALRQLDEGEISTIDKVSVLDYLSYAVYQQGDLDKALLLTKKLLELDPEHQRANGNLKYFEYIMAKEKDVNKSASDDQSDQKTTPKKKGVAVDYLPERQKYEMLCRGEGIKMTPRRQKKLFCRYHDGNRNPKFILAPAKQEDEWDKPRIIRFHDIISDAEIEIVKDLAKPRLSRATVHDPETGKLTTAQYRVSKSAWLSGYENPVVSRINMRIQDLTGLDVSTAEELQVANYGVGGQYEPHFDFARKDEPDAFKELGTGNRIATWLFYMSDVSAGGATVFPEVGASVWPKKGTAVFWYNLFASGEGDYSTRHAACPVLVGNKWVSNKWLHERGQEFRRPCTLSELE

Protein | in vitro ubiquitination (32P-labeled ubiquitin, E1, E2 UbCH5c, ATP; SDS-PAGE autoradiography)
B1 | P4HA1 was ubiquitinated by Syno dTM and Syno RING
B2 | P4HA1 was not ubiquitinated by Syno dTM (C307S) and Syno dTM (dRING)
B3 | P4HA1 was not ubiquitinated by Syno dTM (C307S) and Syno dTM (dRING)
B4 | P4HA1 was ubiquitinated by Syno dTM and Syno RING
